Data set [1] is described as follows: Non-equilibrium diffusive transport across cartilage disks (transport cell). The note with it: free FITC added upstream at t=186 min. The data set is classed as in vitro ADME, bovine. On the procedure:
Real-time measurement of diffusive transport of Avidin and NeutrAvidin through young bovine cartilage disks (with intact superficial zone) was measured using a diffusion chamber consisting of two compartments as described previously (Garcia et al., Arch Biochem Biophys, 2003). Groups of three cartilage disks (6 mm diameter, 400 μm thick) were clamped by O-rings between the two compartments of the diffusion chamber (with total exposed tissue area for transport of 0.28 cm^2/disk), such that solute transport from the upstream compartment into and across the cartilage disks, simultaneously, could occur only from the superficial zone of the cartilage (schematic shown in the inset of FIG. 14). The compartments were treated with casein to prevent non-specific adsorption of solutes to the chamber surfaces. […] Aliquots were taken from each chamber at different time intervals, and fluorescence was measured using a plate reader.
The compartment volume of 25 ml is approximately 1,000× larger than the volume of the cartilage plugs in the configuration of FIG. 14 (inset). […] This configuration thereby focuses on quantitation of steady state solute flux and assessment of effective solute diffusivity within cartilage. […]
[formula] where δ is the thickness of the cartilage disk (˜400 μm). DEFF for Avidin was calculated to be 3.8×10^−7 cm^2/s. […]

Data set [2] can be described thus: Competitive binding of FITC-Avidin and unlabeled Avidin in cartilage (binding isotherm fit). The note with it: labeled Avidin ≦1 μM, no unlabeled Avidin, 3 day equilibration, 37° C. The arrangement: species or system bovine. On the procedure:
To test this hypothesis, competitive binding experiments were performed in which 3 mm diameter cartilage disks were equilibrated for 3 days in 300 μl buffer containing a fixed amount of (fluorescently labeled) FITC-Avidin (1 μM) and graded amounts of unlabeled Avidin (0, 10, 76, 100, and 203 μM). The disks were split into half disks to reduce the time needed for equilibration, which was performed in 96 well plates at 37° C. The uptake ratio, RU, was measured and plotted versus the total bath concentration of Avidin (labeled+unlabeled, FIG. 13), where RU is defined as the total concentration of Avidin inside the cartilage (bound (CB) plus free (CF)) per intra-tissue water weight, normalized to the Avidin concentration in the equilibration bath (CBath):
Labeled and unlabeled Avidin were held to partition into the cartilage identically. At very low concentration of the labeled Avidin (≦1 μM), a high uptake of ˜120 was observed. When unlabeled Avidin was added to the bath, both species (labeled and unlabeled) could compete for the same (constant) number of binding sites available in the tissue (site density NT). […] To model the data of FIG. 13, a first-order, bimolecular, reversible reaction was produced to describe binding of Avidin to a single dominant binding species within cartilage. A theoretical model was adopted, (Garcia et al., Arch Biochem Biophys, 2003) previously used for characterizing the binding of soluble insulin like growth factor-1 (IGF-1) to IGF-binding proteins (IGF-BPs) that are uniformly enmeshed and fixed within cartilage matrix. According to this model, the equilibrium molar concentration of free solute (CF), bound solute (CB), intra-tissue binding site density (NT) and the equilibrium dissociation constant (KEQ) are related by the binding isotherm:
[formula] which is similar in form to a Langmuir adsorption isotherm. […]
[formula] […] Thus, K is determined by both steric hindrance and electrostatic (Donnan) interactions. […]

The conditions of data set [3]: rabbit knee; cited from earlier work.
A short description of data set [4]: One-way diffusion of solutes into cartilage half disks in transport chamber, confocal microscopy imaging. The data set is classed as in vitro ADME, bovine. The note with it: normal cartilage, 4 days.
Source text: Solute Types: Two types of 15 nm diameter (MW˜300 kDa) Quantum Dots (QD) were used: (i) positively charged, and (ii) charge-neutral; same concentration. Transport of FITC (MW˜300 Da, diam˜0.9 nm) and dextrans (Dex) conjugated with FITC (Sigma Aldrich) of different MW (˜8 kDa, diam˜4.3 nm; ˜40 kDa, diam˜10 nm) were also investigated.
Transport Studies: A special PMMA transparent transport chamber was designed to allow diffusion of solutes into only one side (superficial zone) of the cartilage disk. The chamber was treated with Casein to block non-specific binding of solutes to chamber surfaces. The equilibrated cartilage disks were then cut into halves and placed in the middle of the ‘slot chambers’ of the fixture. The chamber side facing the superficial zone was filled with ˜45 μl of solute-PBS solution; the other side was filled with 1×PBS alone. […]
Using a scalpel, a slice (100-200 μm thick) was then cut from the center of each disk (FIG. 1B). […] Appropriate filters were chosen to eliminate auto-fluorescence of cartilage at the settings used for imaging. […] To ensure proper image comparison, solute concentrations were chosen such that the FITC concentration in each solution was identical, thereby giving equal fluorescence intensities.
Data set [5] can be described thus: Equilibrium uptake and desorption of Avidin and NeutrAvidin in cartilage disks. The format is in vitro ADME, bovine. The source says: Cartilage disks were harvested from the femoropatellar grooves of 1-2 week old bovine calf knee joints (obtained from Research 87, Hopkinton, Mass.) as described previously (Patwari et al., Arthritis Rheum, 2003). Briefly, cylindrical cartilage disks (3 mm or 6 mm diameter) were cored using a dermal punch and then sliced to obtain the top 1 mm of cartilage with intact superficial zone. Cartilage disks for all treatment groups were matched for depth and location along the joint surface. The disks were then pre-equilibrated in PBS (without Ca^2±/Mg^2±) supplemented with protease inhibitors (Complete Protease Cocktail tablet in 50 mL PBS, Roche Applied Science, IN) in a 37° C., 5% CO2 incubator for 24-48 h.
Equilibrium uptake of Avidin and NeutrAvidin: 3 mm diameter, 1 mm thick cartilage explants were incubated for specific times in 300 μl of known concentration (3 μM) of FITC-Avidin and FITC-NeutrAvidin, supplemented with protease inhibitors at 37° C. in a 96 well plate format. After removal from the absorption baths, the disks were rinsed, gently wiped and then incubated in 1× or 10×PBS supplemented with protease inhibitors for 24 h or longer as specified. At the end of the experiment, the surfaces of each disk were quickly blotted with Kimwipes and the wet weight was measured. The disks were then lyophilized and the dry weight was measured; the water weight was calculated from the tissue wet and dry weights. The fluorescence signal in the absorption and desorption baths was quantified using a plate reader (1400 Wallace Victor, PerkinElmer, MA); the solute content inside the cartilage disk was determined from the difference between the fluorescence reading of the absorption/desorption baths before and after incubation. […] The solute uptake ratio was calculated as the concentration of the FITC-solute in the cartilage (per intra-tissue water weight) normalized to the concentration of FITC-solute in the equilibration bath.

Data set [6] can be described thus: Intra-articular injection of Avidin or Neutravidin in rat knee joints: penetration, uptake and retention in joint tissues.
Procedure: Intra-articular (i.a.) injections of 50 μl of 50 μM Avidin (pI 10.5, 66 kDa, diameter ˜7 nm) or Neutravidin (neutral at pH 7, 60 kDa, diameter ˜7 nm) conjugated with Texas Red (both from Invitrogen, CA) were administered in the right knee joints of healthy 18-20 weeks old Fischer-344 rats (Charles River Laboratories). Following the injection, rat knees were flexed and extended to distribute the injected solute throughout the intra-articular space. Contralateral left knees were used as controls. Avidin injected rats were sacrificed at 4 different time points (6 h, 1 d, 4 d, 7 d) and Neutravidin injected rats were sacrificed after 1 day. The following tissue types were extracted from each joint: articular cartilage removed from the patellar groove, femoral condyle and tibial plateau using a scalpel; medial and lateral menisci; i.a. ligaments (ACL & PCL); patellar and quadriceps tendons; and femoral bone. 6 rats were used per treatment condition for a total of 30 rats. Using a digital caliper (Fisher Scientific), the joint thickness was measured before and after the injection at each time point to check for joint swelling indicating an inflammatory response to the injection.
Tissue samples extracted from the rat joints injected with Avidin-Texas Red (Excitation at 595 nm and emission at 615 nm) and sacrificed at 6 h were imaged using a confocal microscope (OLYMPUS, FluoView FV1000) at 10× magnification by taking Z stacks. Images were taken in X-Y plane, which represents the surface through which Avidin diffused. 3D images were reconstructed using Z stacking (slice thickness˜4.5 μm) and cross-sections in the X-Z plane of these 3D images were taken.
Tissue samples from all treatment conditions were then desorbed in 10×PBS for 48 h in 37° C. incubator to disrupt electrostatic interactions and release Avidin/Neutravidin into the desorption bath. […] At the end of the experiment, tissue samples were removed from the bath, lyophilized and the dry weight was measured. Fluorescence signal from desorption bath was quantified using a plate reader (Synergy HT, BioTek). […] The solute uptake was calculated as the concentration of labeled solute in the tissue samples normalized by tissue dry weight.
The half-life of Avidin was calculated by fitting an exponential curve to the experimental data:
Where, C0 is the initial and C(t) is the final Avidin concentration in tissue after time t and λ is the decay constant.
For data set [7] the following is noted: pH 7.
Source text: For the non-covalent conjugation, drug was entrapped inside Avidin structure supra-molecularly, while an ester linker and/or pH sensitive hydrazone linker was utilized for the covalent conjugation.

Regarding “fluorescein isothiocyanate [Fluorescein Isothiocyanate (FITC), reference compound]”, the diffusivity in data set [1] is on record as 2.8×10^−5 cm^2/s.

Consider “Avidin-FITC: FITC-conjugated Avidin [reference compound]”, for which the “uptake ratio RU” value in data set [2] is about 120.

With albumin, the Half-life in data set [3] is 1.23 to 3.9 h.

Regarding “NeutrAvidin: electrically neutral globular protein at pH 7, 60 kDa, diameter ~7 nm; neutral counterpart of Avidin [reference compound]”, in data set [4], the “penetration into cartilage explant” value is recorded as “penetrated approximately half the sample thickness”. In addition, in data set [5] (1×PBS, within 1 day), the “percent of absorbed solute diffused out of the cartilage” value is given as “About 50%”. For the same substance, the mean uptake ratio in data set [5] (40% GAG-depleted cartilage (chondroitinase-ABC), 24 h) was 0.55; in data set [5] (normal cartilage, 24 h) it was 0.28; in data set [5] (normal cartilage, 4 days), about 0.44. For the same substance, the “partition coefficient KNeutrAvidin” value in data set [5] (estimated from the data of FIG. 12B) is on record as 0.44. The “presence in rat cartilage and patellar tendon” value in data set [6] (24 h after i.a. injection) was “no Neutravidin present”. Further, the “presence in meniscus, ligaments and quadriceps tendon” value in data set [6] (24 h after i.a. injection, compared to Avidin) is recorded as “small but very insignificant amounts”. In addition, the “detection in the femoral bone” value in data set [6] (any time point) is on record as “Neither Avidin nor Neutravidin was detected”. Moreover, the “clearance from joint after i.a. injection” value in data set [6] (within 24 h) is “almost complete clearance”.

Consider “hydrazone linker: Avidin conjugated with dexamethasone through pH sensitive hydrazone linkage via biotinylated PEG (FIG. 21C, FIG. 24)”, for which, in data set [7], the stability of linker result was “extremely stable”.

Values taken from patent US9289506B2, “Surface binding of nanoparticle based drug delivery to tissue” (Massachusetts Institute of Technology, priority 2013, dated 2016).
